Test results as given in patent US20180086849A1 (Hoffmann-La Roche, published 2018).

T1: hu-MCSP(D3 domain)-avi-his (human, UniProt Q6UVK1 1582-2224, biotinylated where used for selection or for coupling to the SA chip)
T1 construct: also called human MCSP(D3 domain)-avi-his; human MCSP D3
T1 sequence: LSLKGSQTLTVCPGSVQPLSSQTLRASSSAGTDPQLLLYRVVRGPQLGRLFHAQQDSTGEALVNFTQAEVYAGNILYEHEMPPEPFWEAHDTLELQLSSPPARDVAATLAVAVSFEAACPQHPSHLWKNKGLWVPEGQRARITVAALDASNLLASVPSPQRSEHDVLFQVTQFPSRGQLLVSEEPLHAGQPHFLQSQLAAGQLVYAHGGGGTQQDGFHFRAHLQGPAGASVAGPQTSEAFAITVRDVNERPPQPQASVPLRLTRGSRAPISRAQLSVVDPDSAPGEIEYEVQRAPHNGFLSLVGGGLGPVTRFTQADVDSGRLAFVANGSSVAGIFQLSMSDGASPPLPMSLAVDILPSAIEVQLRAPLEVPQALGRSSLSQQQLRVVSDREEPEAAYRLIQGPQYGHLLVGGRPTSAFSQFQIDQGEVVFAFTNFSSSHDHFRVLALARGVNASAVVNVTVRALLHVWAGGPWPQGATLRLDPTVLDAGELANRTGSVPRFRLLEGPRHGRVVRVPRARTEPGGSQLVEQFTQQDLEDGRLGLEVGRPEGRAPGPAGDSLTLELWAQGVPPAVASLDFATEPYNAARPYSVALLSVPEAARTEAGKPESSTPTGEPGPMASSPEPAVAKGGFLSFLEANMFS

T2: cynomolgus MCSP D3 (cynomolgus, UniProt Q6UVK1 1582-2224 (human entry))
T2 construct: also called cynomolgus homologue; not shown: C-terminal tag
T2 chain: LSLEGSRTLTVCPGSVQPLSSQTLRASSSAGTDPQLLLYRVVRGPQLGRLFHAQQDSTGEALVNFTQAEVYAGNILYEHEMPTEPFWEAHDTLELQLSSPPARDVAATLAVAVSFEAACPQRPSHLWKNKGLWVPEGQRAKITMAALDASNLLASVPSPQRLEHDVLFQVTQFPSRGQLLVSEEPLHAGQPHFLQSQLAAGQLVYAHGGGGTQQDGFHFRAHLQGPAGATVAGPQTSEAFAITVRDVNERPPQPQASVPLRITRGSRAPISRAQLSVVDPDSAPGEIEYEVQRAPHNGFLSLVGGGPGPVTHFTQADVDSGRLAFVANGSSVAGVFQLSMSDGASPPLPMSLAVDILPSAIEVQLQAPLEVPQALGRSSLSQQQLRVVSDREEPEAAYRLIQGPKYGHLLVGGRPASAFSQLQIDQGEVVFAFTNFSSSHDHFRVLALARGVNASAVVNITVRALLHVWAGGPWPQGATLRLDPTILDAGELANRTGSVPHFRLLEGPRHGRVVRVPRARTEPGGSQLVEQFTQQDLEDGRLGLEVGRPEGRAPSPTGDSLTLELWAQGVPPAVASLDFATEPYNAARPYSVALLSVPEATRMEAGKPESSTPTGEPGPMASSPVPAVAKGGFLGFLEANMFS


Assays:
[1] = biological target: human MCSP (Melanoma-associated Chondroitin Sulfate Proteoglycan) on cells (human, UniProt Q6UVK1 30-2322); assay: cell-based or functional assay
Chain of human MCSP (Melanoma-associated Chondroitin Sulfate Proteoglycan) on cells (Q6UVK1 30-2322): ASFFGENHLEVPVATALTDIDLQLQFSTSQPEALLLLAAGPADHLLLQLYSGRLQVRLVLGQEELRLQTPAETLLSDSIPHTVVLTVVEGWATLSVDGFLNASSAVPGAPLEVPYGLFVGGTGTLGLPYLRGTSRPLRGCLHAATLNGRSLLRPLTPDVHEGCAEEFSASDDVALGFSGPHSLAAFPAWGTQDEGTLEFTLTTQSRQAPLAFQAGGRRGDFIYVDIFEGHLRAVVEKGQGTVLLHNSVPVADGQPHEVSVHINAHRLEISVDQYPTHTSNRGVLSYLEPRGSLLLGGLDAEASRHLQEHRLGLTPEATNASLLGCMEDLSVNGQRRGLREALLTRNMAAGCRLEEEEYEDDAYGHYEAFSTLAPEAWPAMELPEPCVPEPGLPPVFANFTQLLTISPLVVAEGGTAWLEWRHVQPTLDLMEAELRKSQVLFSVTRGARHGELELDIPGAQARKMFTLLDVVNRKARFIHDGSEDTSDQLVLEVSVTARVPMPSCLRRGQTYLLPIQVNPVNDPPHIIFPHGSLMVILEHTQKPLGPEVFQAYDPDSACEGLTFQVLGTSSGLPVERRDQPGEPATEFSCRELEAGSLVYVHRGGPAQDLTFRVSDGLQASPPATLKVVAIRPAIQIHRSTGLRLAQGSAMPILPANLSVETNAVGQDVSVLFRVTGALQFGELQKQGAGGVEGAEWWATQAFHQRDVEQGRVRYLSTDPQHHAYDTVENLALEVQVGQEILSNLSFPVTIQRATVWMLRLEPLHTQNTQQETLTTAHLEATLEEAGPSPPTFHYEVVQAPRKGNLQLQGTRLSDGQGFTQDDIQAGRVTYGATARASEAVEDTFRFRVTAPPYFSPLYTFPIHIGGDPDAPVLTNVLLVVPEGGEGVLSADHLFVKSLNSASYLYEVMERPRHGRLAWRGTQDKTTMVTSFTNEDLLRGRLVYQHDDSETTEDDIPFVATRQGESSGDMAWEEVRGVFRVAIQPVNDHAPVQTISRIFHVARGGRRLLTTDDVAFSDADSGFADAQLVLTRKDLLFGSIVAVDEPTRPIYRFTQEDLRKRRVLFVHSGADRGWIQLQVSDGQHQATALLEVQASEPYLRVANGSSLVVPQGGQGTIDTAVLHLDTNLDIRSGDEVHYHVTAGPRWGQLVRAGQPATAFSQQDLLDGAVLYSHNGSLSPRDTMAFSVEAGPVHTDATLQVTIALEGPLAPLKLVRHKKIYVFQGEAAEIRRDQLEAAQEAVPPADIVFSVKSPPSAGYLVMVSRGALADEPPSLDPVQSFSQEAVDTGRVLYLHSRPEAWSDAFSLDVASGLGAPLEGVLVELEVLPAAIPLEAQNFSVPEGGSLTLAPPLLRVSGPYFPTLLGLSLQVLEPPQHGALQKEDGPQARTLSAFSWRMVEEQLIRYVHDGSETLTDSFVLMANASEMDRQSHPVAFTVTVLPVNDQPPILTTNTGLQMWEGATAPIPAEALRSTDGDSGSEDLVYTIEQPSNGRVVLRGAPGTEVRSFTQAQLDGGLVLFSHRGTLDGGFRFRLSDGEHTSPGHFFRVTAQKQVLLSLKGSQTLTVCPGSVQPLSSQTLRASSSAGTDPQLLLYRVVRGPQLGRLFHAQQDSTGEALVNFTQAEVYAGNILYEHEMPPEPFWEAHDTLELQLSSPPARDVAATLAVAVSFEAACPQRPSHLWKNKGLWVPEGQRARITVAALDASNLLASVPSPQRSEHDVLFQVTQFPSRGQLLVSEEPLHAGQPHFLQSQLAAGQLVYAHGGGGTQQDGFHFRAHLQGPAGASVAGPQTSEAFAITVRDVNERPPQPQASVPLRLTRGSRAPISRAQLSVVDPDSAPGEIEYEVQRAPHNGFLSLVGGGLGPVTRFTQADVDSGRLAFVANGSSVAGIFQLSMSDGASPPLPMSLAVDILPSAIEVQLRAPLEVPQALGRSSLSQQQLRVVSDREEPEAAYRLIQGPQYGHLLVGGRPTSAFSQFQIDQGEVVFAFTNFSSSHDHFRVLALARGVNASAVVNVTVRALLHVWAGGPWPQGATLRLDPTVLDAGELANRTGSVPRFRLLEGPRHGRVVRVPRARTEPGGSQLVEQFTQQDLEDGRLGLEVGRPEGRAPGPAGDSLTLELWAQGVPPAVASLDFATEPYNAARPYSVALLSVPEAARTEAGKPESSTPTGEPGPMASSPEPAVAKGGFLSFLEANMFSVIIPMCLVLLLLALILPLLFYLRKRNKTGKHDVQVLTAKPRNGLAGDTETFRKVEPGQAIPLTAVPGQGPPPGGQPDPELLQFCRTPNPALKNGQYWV

[2] = biological target: T1, hu-MCSP(D3 domain)-avi-his; assay: SPR (ProteOn XPR36), IgG KD against parental M4-3/ML2
Method: (§1) Briefly, carboxymethylated dextran biosensor chips (CM5, GE Healthcare) were activated with N-ethyl-N′-(3-dimethylaminopropyl)-carbodiimide hydrochloride (EDC) and N-hydroxysuccinimide (NHS) according to the supplier's instructions. Anti-human F(ab′)2 fragment specific capture antibody was diluted with 10 mM sodium acetate, pH 5.0 at 50 μg/ml before injection at a flow rate of 10 μl/minute to achieve approximately up to 10.000 response units (RU) of coupled capture antibody. Following the injection of the capture antibody, 1 M ethanolamine was injected to block unreacted groups. For kinetics measurements, Fabs from bacterial supernatant or purified Fabs are injected at a flow rate of 10 ul/minute for 300 s and a dissociation of 300 s for capture baseline stabilization. […] The surface of the sensorchip was regenerated by injection of glycine pH 1.5 for 30 s at 90 ul/min followed by injection of NaOH for 20 s at the same flow rate. Association rates (kon) and dissociation rates (koff) were calculated using a simple one-to-one Langmuir binding model (ProteOn XPR36 Evaluation Software or Scrubber software (BioLogic)) by simultaneously fitting the association and dissociation sensorgrams. The equilibrium dissociation constant (KD) was calculated as the ratio koff/kon. […] Since CDR1 and 2 of the light chain were randomized independent from CDR3, the obtained CDRs were combined during IgG conversion.
(§2) In the IgG format affinities were measured again to the human MCSP antigen (SEQ ID NO. 390), in addition also to the cynomolgus homologue (SEQ ID NO. 389). Method exactly as described for the Fab fragments, just purified IgG from mammalian production were used.

cynomolgus MCSP D3 = biological target: T2, cynomolgus MCSP D3; assay: as above
Method: as §1, §2

Binder | EC50 of T cell-mediated killing (LDH release) of MV-3 cells, human PBMCs, 21 h [1] [nM] | EC50 of T cell-mediated killing (LDH release) of WM266-4 cells, human PBMCs, 21 h [1] [nM] | EC50 of T cell-mediated killing (LDH release) of MV-3 cells, human PBMCs, 27 h [1] [nM] | EC50 of T cell-mediated killing (LDH release) of WM266-4 cells, human PBMCs, 26 h [1] [nM] | Comparative binding affinity - Fold increase over parent [2] [fold] | Comparative binding affinity - Fold increase over parent (cynomolgus MCSP D3) [fold]
1+1 IgG Crossfab; VL/VH exchange (LC007/V9), anti-MCSP/anti-huCD3 (bispecific antibody) chain 1: DIVLTQSPSSLSASLGDRVTISCSASQGIRNYLNWYQQRPDGTVKLLIYYTSSLHSGVPSRFSGSGSGTDYSLTISNLEPEDIATYYCQQYSKLPWTFGGGTKLEIKRTVAAPSVFIFPPSDEQLKSGTASVVCLLNNFYPREAKVQWKVDNALQSGNSQESVTEQDSKDSTYSLSSTLTLSKADYEKHKVYACEVTHQGLSSPVTKSFNRGEC chain 2: DIQMTQSPSSLSASVGDRVTITCRASQDIRNYLNWYQQKPGKAPKLLIYYTSRLESGVPSRFSGSGSGTDYTLTISSLQPEDFATYYCQQGNTLPWTFGQGTKVEIKSSASTKGPSVFPLAPSSKSTSGGTAALGCLVKDYFPEPVTVSWNSGALTSGVHTFPAVLQSSGLYSLSSVVTVPSSSLGTQTYICNVNHKPSNTKVDKKVEPKSCGGGGSGGGGSEVQLQESGPGLVKPSQSLSLTCSVTGYSITSGYYWNWIRQFPGNKLEWMGYITYDGSNNYNPSLKNRISITRDTSKNQFFLKLNSVTTEDTATYYCADFDYWGQGTTLTVSSASTKGPSVFPLAPSSKSTSGGTAALGCLVKDYFPEPVTVSWNSGALTSGVHTFPAVLQSSGLYSLSSVVTVPSSSLGTQTYICNVNHKPSNTKVDKKVEPKSCDKTHTCPPCPAPEAAGGPSVFLFPPKPKDTLMISRTPEVTCVVVDVSHEDPEVKFNWYVDGVEVHNAKTKPREEQYNSTYRVVSVLTVLHQDWLNGKEYKCKVSNKALGAPIEKTISKAKGQPREPQVCTLPPSRDELTKNQVSLSCAVKGFYPSDIAVEWESNGQPENNYKTTPPVLDSDGSFFLVSKLTVDKSRWQQGNVFSCSVMHEALHNHYTQKSLSLSPGK chain 3: EVQLVESGGGLVQPGGSLRLSCAASGYSFTGYTMNWVRQAPGKGLEWVALINPYKGVSTYNQKFKDRFTISVDKSKNTAYLQMNSLRAEDTAVYYCARSGYYGDSDWYFDVWGQGTLVTVSSASVAAPSVFIFPPSDEQLKSGTASVVCLLNNFYPREAKVQWKVDNALQSGNSQESVTEQDSKDSTYSLSSTLTLSKADYEKHKVYACEVTHQGLSSPVTKSFNRGEC chain 4: not shown | 0.0409 | 0.0284 |  |  |  | 
2+1 IgG Crossfab; VL/VH exchange (M4-3 ML2/V9), anti-MCSP/anti-huCD3 (bispecific antibody) chain 1: EVQLVESGGGLVQPGGSLRLSCAASGYSFTGYTMNWVRQAPGKGLEWVALINPYKGVSTYNQKFKDRFTISVDKSKNTAYLQMNSLRAEDTAVYYCARSGYYGDSDWYFDVWGQGTLVTVSSASVAAPSVFIFPPSDEQLKSGTASVVCLLNNFYPREAKVQWKVDNALQSGNSQESVTEQDSKDSTYSLSSTLTLSKADYEKHKVYACEVTHQGLSSPVTKSFNRGEC chain 2: not shown chain 3: not shown chain 4: QVQLQESGPGLVKPSQTLSLTCTVSGGSITSGYYWNWIRQHPGKGLEWIGYITYDGSNNYNPSLKSRVTISRDTSKNQFSLKLSSVTAADTAVYYCADFDYWGQGTLVTVSSASTKGPSVFPLAPSSKSTSGGTAALGCLVKDYFPEPVTVSWNSGALTSGVHTFPAVLQSSGLYSLSSVVTVPSSSLGTQTYICNVNHKPSNTKVDKKVEPKSCDKTHTCPPCPAPEAAGGPSVFLFPPKPKDTLMISRTPEVTCVVVDVSHEDPEVKFNWYVDGVEVHNAKTKPREEQYNSTYRVVSVLTVLHQDWLNGKEYKCKVSNKALGAPIEKTISKAKGQPREPQVCTLPPSRDELTKNQVSLSCAVKGFYPSDIAVEWESNGQPENNYKTTPPVLDSDGSFFLVSKLTVDKSRWQQGNVFSCSVMHEALHNHYTQKSLSLSPGK |  |  | ~0.0822 | 0.0168 |  | 
1+1 CrossMab; CL/CH1 exchange (LC007/V9), anti-MCSP/anti-huCD3 (bispecific antibody, human IgG1, kappa, L234A L235A) chain 1: DIVLTQSPSSLSASLGDRVTISCSASQGIRNYLNWYQQRPDGTVKLLIYYTSSLHSGVPSRFSGSGSGTDYSLTISNLEPEDIATYYCQQYSKLPWTFGGGTKLEIKRTVAAPSVFIFPPSDEQLKSGTASVVCLLNNFYPREAKVQWKVDNALQSGNSQESVTEQDSKDSTYSLSSTLTLSKADYEKHKVYACEVTHQGLSSPVTKSFNRGEC chain 2: EVQLQESGPGLVKPSQSLSLTCSVTGYSITSGYYWNWIRQFPGNKLEWMGYITYDGSNNYNPSLKNRISITRDTSKNQFFLKLNSVTTEDTATYYCADFDYWGQGTTLTVSSASTKGPSVFPLAPSSKSTSGGTAALGCLVKDYFPEPVTVSWNSGALTSGVHTFPAVLQSSGLYSLSSVVTVPSSSLGTQTYICNVNHKPSNTKVDKKVEPKSCDKTHTCPPCPAPEAAGGPSVFLFPPKPKDTLMISRTPEVTCVVVDVSHEDPEVKFNWYVDGVEVHNAKTKPREEQYNSTYRVVSVLTVLHQDWLNGKEYKCKVSNKALGAPIEKTISKAKGQPREPQVCTLPPSRDELTKNQVSLSCAVKGFYPSDIAVEWESNGQPENNYKTTPPVLDSDGSFFLVSKLTVDKSRWQQGNVFSCSVMHEALHNHYTQKSLSLSPGK chain 3: DIQMTQSPSSLSASVGDRVTITCRASQDIRNYLNWYQQKPGKAPKLLIYYTSRLESGVPSRFSGSGSGTDYTLTISSLQPEDFATYYCQQGNTLPWTFGQGTKVEIKSSASTKGPSVFPLAPSSKSTSGGTAALGCLVKDYFPEPVTVSWNSGALTSGVHTFPAVLQSSGLYSLSSVVTVPSSSLGTQTYICNVNHKPSNTKVDKKVEPKSC chain 4: not shown | 0.0884 | 0.0539 |  |  |  | 
M4-3/ML2 (E10/G3) (IgG) (antibody, V domains shown, Human IgG1 format) VH: QVQLQESGPGLVKPSQTLSLTCTVSGGSITSGYYWNWIRQHPGKGLEWIGYITYDGSNNYNPSLKSRVTISRDTSKNQFSLKLSSVTAADTAVYYCADFDYWGQGTLVTVSS VL: DIQMTQSPSSLSASVGDRVTITCRASYGIRGYLNWYQQKPGKAPKLLIYYTSSLHSGVPSRFSGSGSGTDFTLTISSLQPEDFATYHCQQYSALPWTFGQGTKVEIK |  |  |  |  | 5 | 2.2
M4-3(C1)/ML2(G3) (IgG) (antibody, V domains shown, Human IgG1; also called MCSP M4-3(C1) ML2(G3)) VH: QVQLQESGPGLVKPSQTLSLTCTVSGGSITSGYYWNWIRQHPGKGLEWIGYITFDGSNNYNPSLKSRVTISRDTSKNQFSLKLSSVTAADTAVYYCADFDYWGQGTLVTVSS VL: DIQMTQSPSSLSASVGDRVTITCRASQGIRNYLNWYQQKPGKAPKLLIYYTSSLHSGVPSRFSGSGSGTDYTLTISSLQPEDFATYYCQQYSALPWTFGQGTKVEIKR |  |  |  |  | 28.6 | 10
2+1 IgG Crossfab; CL/CH1 exchange (M4-3 ML2/V9), anti-MCSP/anti-huCD3 (bispecific antibody) chain 1: DIQMTQSPSSLSASVGDRVTITCRASQDIRNYLNWYQQKPGKAPKLLIYYTSRLESGVPSRFSGSGSGTDYTLTISSLQPEDFATYYCQQGNTLPWTFGQGTKVEIKSSASTKGPSVFPLAPSSKSTSGGTAALGCLVKDYFPEPVTVSWNSGALTSGVHTFPAVLQSSGLYSLSSVVTVPSSSLGTQTYICNVNHKPSNTKVDKKVEPKSC chain 2: not shown chain 3: QVQLQESGPGLVKPSQTLSLTCTVSGGSITSGYYWNWIRQHPGKGLEWIGYITYDGSNNYNPSLKSRVTISRDTSKNQFSLKLSSVTAADTAVYYCADFDYWGQGTLVTVSSASTKGPSVFPLAPSSKSTSGGTAALGCLVKDYFPEPVTVSWNSGALTSGVHTFPAVLQSSGLYSLSSVVTVPSSSLGTQTYICNVNHKPSNTKVDKKVEPKSCDKTHTCPPCPAPEAAGGPSVFLFPPKPKDTLMISRTPEVTCVVVDVSHEDPEVKFNWYVDGVEVHNAKTKPREEQYNSTYRVVSVLTVLHQDWLNGKEYKCKVSNKALGAPIEKTISKAKGQPREPQVCTLPPSRDELTKNQVSLSCAVKGFYPSDIAVEWESNGQPENNYKTTPPVLDSDGSFFLVSKLTVDKSRWQQGNVFSCSVMHEALHNHYTQKSLSLSPGK chain 4: not shown |  |  | ~0.0117 | 0.0129 |  | 
